# B1: Arabidopsis thaliana AFB2 (AtAFB2), auxin perceptive F-box protein, tagged with mCherry (receptor, not shown: large carriers)
# chain: MNYFPDEVIEHVFDFVTSHKDRNAISLVCKSWYKIERYSRQKVFIGNCYAINPERLLRRFPCLKSLTLKGKPHFADFNLVPHEWGGFVLPWIEALARSRVGLEELRLKRMVVTDESLELLSRSFVNFKSLVLVSCEGFTTDGLASIAANCRHLRDLDLQENEIDDHRGQWLSCFPDTCTTLVTLNFACLEGETNLVALERLVARSPNLKSLKLNRAVPLDALARLMACAPQIVDLGVGSYENDPDSESYLKLMAVIKKCTSLRSLSGFLEAAPHCLSAFHPICHNLTSLNLSYAAEIHGSHLIKLIQHCKKLQRLWILDSIGDKGLEVVASTCKELQELRVFPSDLLGGGNTAVTEEGLVAISAGCPKLHSILYFCQQMTNAALVTVAKNCPNFIRFRLCILEPNKPDHVTSQPLDEGFGAIVKACKSLRRLSLSGLLTDQVFLYIGMYANQLEMLSIAFAGDTDKGMLYVLNGCKKMKKLEIRDSPFGDTALLADVSKYETMRSLWMSSCEVTLSGCKRLAEKAPWLNVEIINENDNNRMEENGHEGRQKVDKLYLYRTVVGTRMDAPPFVWILGGSGG
# B2: TIR1 derived from Oryza sativa (OsTIR1) (receptor, UniProt Q7XVM8 1-575, looked up)
# chain: MTYFPEEVVEHIFSFLPAQRDRNTVSLVCKVWYEIERLSRRGVFVGNCYAVRAGRVAARFPNVRALTVKGKPHFADFNLVPPDWGGYAGPWIEAAARGCHGLEELRMKRMVVSDESLELLARSFPRFRALVLISCEGFSTDGLAAVASHCKLLRELDLQENEVEDRGPRWLSCFPDSCTSLVSLNFACIKGEVNAGSLERLVSRSPNLRSLRLNRSVSVDTLAKILLRTPNLEDLGTGNLTDDFQTESYFKLTSALEKCKMLRSLSGFWDASPVCLSFIYPLCAQLTGLNLSYAPTLDASDLTKMISRCVKLQRLWVLDCISDKGLQVVASSCKDLQELRVFPSDFYVAGYSAVTEEGLVAVSLGCPKLNSLLYFCHQMTNAALVTVAKNCPNFTRFRLCILEPGKPDVVTSQPLDEGFGAIVRECKGLQRLSISGLLTDKVFMYIGKYAKQLEMLSIAFAGDSDKGMMHVMNGCKNLRKLEIRDSPFGDAALLGNFARYETMRSLWMSSCNVTLKGCQVLASKMPMLNVEVINERDGSNEMEENHGDLPKVEKLYVYRTTAGARDDAPNFVKIL
# Legend:
# Assay in all cases: cell-based or functional assay
# [1] = target: LBR tagged C-terminally with miniIAA7-mEGFP (human; Arabidopsis thaliana) (UniProt Q14739)
# [2] = target: NMIIa (MYH9) tagged N-terminally with miniIAA7-mEGFP (Arabidopsis thaliana; human) (UniProt P35579)
# [3] = target: Non-nuclear targets expressed at low levels (seipin, NPC1, PEX3 and Glut1), tagged with miniIAA7-mEGFP
# [4] = target: all targets (endogenous loci tagged homozygously with miniIAA7-mEGFP N- or C-terminally)
# [5] = target: seipin tagged with miniAID-mEGFP (miniAID = AtIAA17 amino acid residues 68-132) (human; Arabidopsis thaliana) (UniProt Q96G97)
# [6] = target: seipin tagged with miniIAA7-mEGFP (miniIAA7 = AtIAA7 amino acids 37-104) (human; Arabidopsis thaliana) (UniProt Q96G97)
binder,measurement,setting,value
B1,"target protein level at 1 h IAA, FACS of GFP",[1],< 12%
same,"target protein level at 1 h IAA, FACS of GFP",[2],< 12%
same,"target protein level at 1 h IAA, FACS of GFP",[3],2 to 5%
same,"target protein level at 0 h IAA (basal degradation), FACS of GFP (% levels of control)",[4],86 to 109
same,"target protein level at 16 h IAA, FACS of GFP",[4],2 to 5 % levels
same,"target protein level before IAA addition (0 h IAA), FACS of GFP, compared to OsTIR1",[5],5 fold
same,"auxin-inducible protein reduction at 1 h IAA, FACS of GFP, compared to miniAID",[6],3 fold
B2,"basal degradation at 0 h IAA, FACS of GFP",[4],12 to 37%
same,"depletion efficiency at 16 h IAA, FACS of GFP",[4],2 to 7%

# Reference: patent publication US20220041665A1, “POLYNUCLEOTIDE AND USES THEREOF” (Helsingin yliopisto, priority 2019, published 2022)
